The source of these data is the supplement of paper PMC7877785.

This series is described as follows: self-splicing fitness, log relative to wild type (ln ratio); higher = more splicing; Tetrahymena group I intron in knt gene, E. coli kanamycin selection, DiMSum; sequences stand for … in CUCUCU…GGAGGGAAAAGUUAUCAGGCAUGCACCUGGUAGCUAGUCUUUAAACCAAUAGAUUGCAUCGGUUUAAAAGGCAAGACCGUCAAAUUGCGGGAAAGGGGUCAACAGCCGUUCAGUACCAAGUCUCAGGGGAAACUUUGAGAUGGCCUUGCAAAGGGUAUGGUAAUAAGCUGACGGACAUGGUCCUAACCACGCAGCCAAGUCCUAAGUCAACAGAUCUUCUGUUGAUAUGGAUGCAGUUCACAGACUAAAUGUCGGUCGGGGAAGAUGUAUUCUUCUCAUAAGAUAUAGUCGGACCUCUCCUUAAUGGGAGCUAGCGGAUGAAGUGAUGCAACACUGGAGCCGCUGGGAACUAAUUUGUAUGCGAAAGUAUAUUGAUUAGUUUUGGAGUACUCGUGGUCG
The method, boiled down:
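A randomised library covering all eight P1ex-region intron nucleotides was built with the intron in the knt kanamycin-resistance gene on pET-22b(+) and held in E. coli BL21(DE3). Cells were grown overnight at 37°C or 30°C on LB agar, with or without 25 μg/mL kanamycin, plus 100 μg/mL carbenicillin, 50 μM IPTG and 0.2% rhamnose, and pooled colonies were amplicon-sequenced on an Illumina HiSeq 2500. DiMSum fitness is the error-weighted combination of wild-type-normalised replicate fold changes, kanamycin versus none.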

± gives the uncertainty stated by the source.

As to CCAUAGCAAUAUUACGUCAC, the “self-splicing fitness (ln)” value (30 °C) was -3.48 ± 0.28.

As for GGCGAGCAAUAUUACGACGG, the “self-splicing fitness (ln)” value (30 °C) is -3.28 ± 0.38 and the “self-splicing fitness (ln)” value (37 °C) was -3.37 ± 0.47.

For UGGAAGCAAUAUUACGAACG, the “self-splicing fitness (ln)” value (30 °C) is -0.465 ± 0.24 and the “self-splicing fitness (ln)” value (37 °C) was -0.592 ± 0.32.

Turning to UUAAAGCAAUAUUACGACGC, the “self-splicing fitness (ln)” value is -0.776 ± 0.077 (30 °C) and 0.177 ± 0.11 (37 °C).

Consider UGUGAGCAAUAUUACGACUU, for which the “self-splicing fitness (ln)” value (30 °C) is -2.13 ± 0.23 and the “self-splicing fitness (ln)” value (37 °C) was -2.33 ± 0.26.

Take CAGAAGCAAUAUUACGACUU: the “self-splicing fitness (ln)” value was -0.506 ± 0.078 (30 °C) and 0.0901 ± 0.079 (37 °C).

AUAAAGCAAUAUUACGACUC: the “self-splicing fitness (ln)” value is -0.219 ± 0.075 (30 °C) and 0.324 ± 0.088 (37 °C).

Take CCGCAGCAAUAUUACGGUCC: the “self-splicing fitness (ln)” value by setting is: (30 °C) -3.73 ± 0.23; (37 °C) -1.99 ± 0.23.

Take CGAGAGCAAUAUUACGCUUG: the “self-splicing fitness (ln)” value by setting is: (30 °C) -3.51 ± 0.33; (37 °C) -3.14 ± 0.34.

Turning to AACUAGCAAUAUUACGCAUG, the “self-splicing fitness (ln)” value (30 °C) is -1.25 ± 0.083 and the “self-splicing fitness (ln)” value (37 °C) is -0.11 ± 0.086.

Turning to CCGGAGCAAUAUUACGCAUU, the “self-splicing fitness (ln)” value was -2.9 ± 0.39 (30 °C) and -1.81 ± 0.45 (37 °C).

Regarding AACUAGCAAUAUUACGUUCA, the “self-splicing fitness (ln)” value is -1.3 ± 0.1 (30 °C) and -0.728 ± 0.12 (37 °C).

For AUAUAGCAAUAUUACGGGCG, the “self-splicing fitness (ln)” value (30 °C) is -1.47 ± 0.17 and the “self-splicing fitness (ln)” value (37 °C) is -0.59 ± 0.15.

Turning to GCGCAGCAAUAUUACGCAGG, the “self-splicing fitness (ln)” value (30 °C) is -3.86 ± 0.31 and the “self-splicing fitness (ln)” value (37 °C) was -2.09 ± 0.34.

Turning to AUGUAGCAAUAUUACGUCCA, the “self-splicing fitness (ln)” value is -1.65 ± 0.17 (30 °C) and -0.252 ± 0.17 (37 °C).

UUAUAGCAAUAUUACGUUAU: where the note is “37 °C”, the “self-splicing fitness (ln)” value was -2.31 ± 0.34.

For CGCGAGCAAUAUUACGAAGA, the “self-splicing fitness (ln)” value (37 °C) is -0.985 ± 0.39.

As to AGUUAGCAAUAUUACGUUGA, the “self-splicing fitness (ln)” value runs as follows: (30 °C) -2.03 ± 0.31; (37 °C) -2.02 ± 0.39.

Turning to AAAGAGCAAUAUUACGUUGA, the “self-splicing fitness (ln)” value is, setting by setting: (30 °C) -2.75 ± 0.21; (37 °C) -2.28 ± 0.26.

Regarding AAACAGCAAUAUUACGAGUU, the “self-splicing fitness (ln)” value is, setting by setting: (30 °C) -1.94 ± 0.068; (37 °C) -0.482 ± 0.075.

For the sequence UACAAGCAAUAUUACGCAGC, the “self-splicing fitness (ln)” value (30 °C) was -4 ± 0.42 and the “self-splicing fitness (ln)” value (37 °C) is -2.63 ± 0.39.

For the sequence AACCAGCAAUAUUACGUGAU, the “self-splicing fitness (ln)” value is, setting by setting: (30 °C) -1.66 ± 0.04; (37 °C) -1.11 ± 0.05.

GUUGAGCAAUAUUACGAGCG: for the setting “37 °C”, the “self-splicing fitness (ln)” value was -1.37 ± 0.25.

In the case of CGUAAGCAAUAUUACGCCGC, the “self-splicing fitness (ln)” value reads like this: (30 °C) -1.76 ± 0.45; (37 °C) -2.13 ± 0.42.

Turning to UCUCAGCAAUAUUACGACUA, the “self-splicing fitness (ln)” value is -1.87 ± 0.12 (30 °C) and -1.37 ± 0.12 (37 °C).

As to CUUCAGCAAUAUUACGACUU, the “self-splicing fitness (ln)” value (30 °C) is -4.07 ± 0.29 and the “self-splicing fitness (ln)” value (37 °C) was -2.34 ± 0.21.

With CAAAAGCAAUAUUACGUAUA, the “self-splicing fitness (ln)” value is, setting by setting: (30 °C) -3 ± 0.15; (37 °C) -2.38 ± 0.17.

Turning to UAGCAGCAAUAUUACGCUUC, the “self-splicing fitness (ln)” value (30 °C) is -3.05 ± 0.34 and the “self-splicing fitness (ln)” value (37 °C) is -2.25 ± 0.33.

Regarding ACCAAGCAAUAUUACGAUCC, the “self-splicing fitness (ln)” value (30 °C) is -1.83 ± 0.093 and the “self-splicing fitness (ln)” value (37 °C) is -0.778 ± 0.14.

For the sequence UUAGAGCAAUAUUACGCCUG, the “self-splicing fitness (ln)” value (30 °C) was -0.457 ± 0.11 and the “self-splicing fitness (ln)” value (37 °C) worked out at 0.235 ± 0.18.

UGCCAGCAAUAUUACGUUGG: the “self-splicing fitness (ln)” value reads like this: (30 °C) -3.91 ± 0.18; (37 °C) -2.22 ± 0.15.

Take CGCGAGCAAUAUUACGAGUU: the “self-splicing fitness (ln)” value is -3.3 ± 0.2 (30 °C) and -3.19 ± 0.26 (37 °C).

AAGCAGCAAUAUUACGGGCA: the “self-splicing fitness (ln)” value is, setting by setting: (30 °C) -0.552 ± 0.072; (37 °C) -0.789 ± 0.077.

Regarding ACCUAGCAAUAUUACGUCGG, the “self-splicing fitness (ln)” value runs as follows: (30 °C) -1.07 ± 0.078; (37 °C) -1.11 ± 0.11.
